Data from US6558918.

How the values were obtained:
[1] = biological target: Cdc2-A14/cyclin B1 complex, P06493
[2] = biological target: Cdc2/cyclin A complex, P06493
[3] = biological target: kinase-deficient Cdc2 mutant (K-) complexed with cyclin B1, P06493
[4] = biological target: Cdk2/cyclin A complex, P24941
[5] = biological target: wild-type Cdc2/cyclin B1 complex, P06493
[6] = biological target: Cdk2/cyclin E complex, P24941
[7] = biological target: Cdc2-F15/CyclinB1 complex, P06493
[8] = biological target: Cdc2-AF/CyclinB1 complex, P06493
Cdc2-AF/CyclinB1 complex, P06493, sequence (P06493 whole entry, looked up, one chain of several): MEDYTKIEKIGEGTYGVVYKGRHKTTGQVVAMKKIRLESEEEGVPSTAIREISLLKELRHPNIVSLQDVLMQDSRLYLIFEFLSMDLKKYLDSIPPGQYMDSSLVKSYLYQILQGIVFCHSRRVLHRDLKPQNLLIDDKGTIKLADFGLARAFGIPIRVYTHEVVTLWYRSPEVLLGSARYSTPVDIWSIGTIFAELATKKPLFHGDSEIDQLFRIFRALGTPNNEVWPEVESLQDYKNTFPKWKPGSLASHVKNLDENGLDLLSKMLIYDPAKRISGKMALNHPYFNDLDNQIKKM

[9] = biological target: Cdk4/cyclin D1 complex, P11802
Cdk4/cyclin D1 complex, P11802, sequence (P11802 whole entry, looked up, one chain of several): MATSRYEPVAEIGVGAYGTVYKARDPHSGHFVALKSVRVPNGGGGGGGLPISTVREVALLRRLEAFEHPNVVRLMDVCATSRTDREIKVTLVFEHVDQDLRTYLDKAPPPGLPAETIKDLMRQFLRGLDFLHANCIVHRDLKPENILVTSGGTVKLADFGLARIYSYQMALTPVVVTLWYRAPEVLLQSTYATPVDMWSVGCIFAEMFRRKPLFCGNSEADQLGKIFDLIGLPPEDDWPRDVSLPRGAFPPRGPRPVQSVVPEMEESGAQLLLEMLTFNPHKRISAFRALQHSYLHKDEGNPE

wild-type Cdc2/cyclin B1 complex, P06493, sequence (P06493 whole entry, looked up, one chain of several): as the sequence (P06493 whole entry, looked up, one chain of several) above
kinase-deficient Cdc2 mutant (K-) complexed with cyclin B1, P06493, sequence (P06493 whole entry, looked up, change not shown, one chain of several): as the sequence (P06493 whole entry, looked up, one chain of several) above
Cdc2/cyclin A complex, P06493, sequence (P06493 whole entry, looked up, one chain of several): as above
Cdc2-A14/cyclin B1 complex, P06493, sequence (P06493 whole entry, looked up, one chain of several): as above
Cdc2-F15/CyclinB1 complex, P06493, sequence (P06493 whole entry, looked up, one chain of several): as above
monomeric Cdc2, P06493, sequence (P06493 whole entry, looked up): as the sequence (P06493 whole entry, looked up, one chain of several) above

B1: Cell Growth Regulatory Protein, truncated hybrid protein (residues 1-9 deleted) with N-terminal Glu-Glu tag, expressed in Sf9 cells (protein)
chain: MEYMPMEGTRPEMPMPTEGTPPPLSGTPIPVPAYFRHAEPGFSLKRPRGLSRSLPPPPPAKGSIPISRLFPPRTPGWHQLQPRRVSFRGEASETLQSPGYDPSRPESFFQQSFQRLSRLGHGSYGEVFKVRSKEDGRLYAVKRSMSPFRGPKDRARKLAEVGSHEKVGQHPCCVRLEQAWEEGGILYLQTELCGPSLQQHCEAWGASLPEAQVWGYLRDTLLALAHLHSQGLVHLDVKPANIFLGPRGRCKLGDFGLLVELGTAGAGEVQEGDPRYMAPELLQGSYGTAADVFSLGLTILEVACNMELPHGGEGWQQLRQGYLPPEFTAGLSSELRSVLVMMLEPDPKLRATAEALLALPVLRQPRAWGVLWCMAAEALSRGWALWQALLALLCWLWHGLAHPASWLQPLGPPATPPDSPPCSLLLDSSFSSNWDDDSLGPSLSPEAVLARTVGSTSTPRSRCTPRDALDLSDINSEPPRGSFPSFEPRNLLSMFEDTLDPT
How did the “histone H1 kinase activity (Cdc2 kinase activation) in mixed Sf9 lysates” value [1] turn out when B1 was run?
The value was “such lysates also inhibited both Cdc2-A14 and Cdc2-F15 activation; Cdc2-A14 lysates consistently retain some histone H1 kinase activity”.

And the “histone H1 kinase activity in mixed Sf9 lysates” value [2]?
Its value is “greatly reduced histone H1 kinase activity compared to a mock-treated or Cdc2-AF control lysate”.

And the “32P-labeling in a kinase reaction with affinity purified proteins, SDS-PAGE” value (“32P-labeling in a kinase reaction … SDS-PAGE” for short) [3]?
The value was “both purified Cell Growth Regulatory Protein and Wee1 kinases were capable of phosphorylating wild-type Cdc2 as well as a kinase-deficient Cdc2 mutant (K-), each of which was complexed with cyclin B1”.

What about the “phosphoamino acid analysis of 32P-labeled Cdc2” value [3] of the same protein?
Its value is “phosphorylation occurred only on threonine residues”.

And the “32P-labeling in a kinase reaction with purified proteins” value (shortened to “32P-labeling … with purified proteins”) [4]?
The value was “Cell Growth Regulatory Protein failed to phosphorylate Cdk2 that was complexed with either cyclin A or cyclin E”.

And the “histone H1 kinase activity in mixed Sf9 lysates, wild-type Cdk2 against Cdk2-AF” value [4]?
The value was “an equivalent amount of histone H1 kinase activity was present in wild-type Cdk2 and Cdk2-AF lysates that had been mixed with either cyclin A or cyclin E lysates in the presence of Cell Growth Regulatory Protein”.

What about the “32P-labeling in a kinase reaction … SDS-PAGE” value [5] of the same protein?
The value was “both purified Cell Growth Regulatory Protein and Wee1 kinases were capable of phosphorylating wild-type Cdc2 as well as a kinase-deficient Cdc2 mutant (K-), each of which was complexed with cyclin B1”.

And the “32P-labeling in a kinase reaction with the Cdc2/cyclin B1 complex reconstituted from monomers” value [5]?
Its value is “reconstitution of the Cdc2/cyclin B1 complex, by pre-incubating monomeric Cdc2 with monomeric cyclin B1, enabled Cell Growth Regulatory Protein to phosphorylate Cdc2”.

What about the “histone H1 kinase activity (Cdc2 kinase activation) in mixed Sf9 lysates” value [5] of the same protein?
Its value is “a dramatic reduction in Cdc2 kinase activation was observed, similar to that observed for Wee1”.

What about the “immunoblotting of mixed lysates with phosphotyrosine antibodies” value [5] of the same protein?
Its value is “showed that Cdc2 was phosphoryalted on Tyrosine 15 to some extent”.

And the “32P-labeling in a kinase reaction with monomeric Cdc2 as substrate” value (monomeric Cdc2, P06493)?
Its value is “Cell Growth Regulatory Protein did not phosphorylate monomeric Cdc2”.

What about the “32P-labeling … with purified proteins” value [6] of the same protein?
Its value is “Cell Growth Regulatory Protein failed to phosphorylate Cdk2 that was complexed with either cyclin A or cyclin E”.

What about the “histone H1 kinase activity in mixed Sf9 lysates, wild-type Cdk2 against Cdk2-AF” value [6] of the same protein?
Its value is “an equivalent amount of histone H1 kinase activity was present in wild-type Cdk2 and Cdk2-AF lysates that had been mixed with either cyclin A or cyclin E lysates in the presence of Cell Growth Regulatory Protein”.

And the “histone H1 kinase activity (Cdc2 kinase activation) in mixed Sf9 lysates” value [7]?
The value was “such lysates also inhibited both Cdc2-A14 and Cdc2-F15 activation”.

What about the “32P-labeling in a kinase reaction … SDS-PAGE” value [8] of the same protein?
Its value is “the Cdc2-AF mutant was not phosphorylated by Cell Growth Regulatory Protein or Wee1”.

And the “32P-labeling … with purified proteins” value [9]?
The value was “neither Cell Growth Regulatory Protein nor Wee1 phosphorylated the Cdk4 subunit”.
